Laboratory results from the nanobody polyreactivity screen of Harvey et al. (2022).

test: yeast display, Sf9 membrane polyspecificity reagent, FACS + sequencing; frameworks hold sequencing errors
Method in brief: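 A nanobody's polyreactivity label depends on the gate it was sorted from. Yeast display cells were stained with 10% biotinylated, detergent-solubilized Sf9 membrane reagent for 1 hour at 4 °C, enriched on streptavidin microbeads and sorted by FACS. The low and high (top ~1%) gates were set on anti-HA fluorescence for expression and streptavidin fluorescence for reagent binding.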

Row | Sequence | polyreactivity (PSR sort gate)
1 | QVQLVESGGGLVQAGGSLRLSCSASGFIFDVYAMGWYRPAPGKERELVAAISRSGGSTYYADSVKGRFTISRDNAKNTVYLQMNSLKPEDTAVYYCATVLLNNVDYDYWGQGTQVTVSS | low polyreactivity
2 | QVQLVESGGGLVQAGGSLRLSCSASGFIFITVNAMGWYRQAPGKEREFVAAITRSGTGTYYADSVKGRFTISRDHAKNTVYLQMNSLKPEDTAVYYCAADATSTGAYDYWGQGTQVTVSS | low polyreactivity
3 | QVQLVESGGGLVQAGGSLRLSCSASGFIFVDYAMGWYRQSPGKERELVAAISRSGGSTYYADSVKGRFTISRDNAKNTVYLQMNSLKPEDTAVYYCAAKYPFYAKNGYWGQGTQVTVSS | high polyreactivity
4 | QVQLVESGGGLVQAGGSLRLSCSASGFILLAYAMGWYRQAHGKERELVAAITSGGSTHYADSVKGRFTISRDNAKNTVYLQMNSLKPEDTAVYYCANDTVFRYSGNTYGYWGQGTQVTVSS | low polyreactivity
5 | QVQLVESGGGLVQAGGSLRLSCSASGFTFDSYAMGWYRQAPGKERELVAAITSDGSTYYADSVKGRFTISRDNAKNTVYLQMNSLKPEDTAVYYCAADGRYFRAVFRLYDYWGQGTQVTVSS | low polyreactivity
6 | QVQLVESGGGLVQAGGSLRLSCSASGFTYDYYAMGWYRQAPGKERELVATISVSAVSTSYADSVKGRFTISRDNAKNTVYLQMNSLKPEDTAVYYCAASRGPYYYHYSGSLKSFDYWGQGTQVTVSS | low polyreactivity
7 | QVQLVESGGGLVQAGGSLRLSCSASGGIFWVYAMGWYRQAPGKERELVAAISNSDTSTSYADSVKGRFTISRDNAKNTVYLQMNSLKPEDTAVYYCNADSPSLSGDYWGQGTQVTVSS | low polyreactivity
8 | QVQLVESGGGLVQAGGSLRLSCSASGIIFDVNALGWYRQSPGKERELVADITYSVGSTSYADSVKGRFTISRDNAKNTVYLQMNSLKPEDTAVYYCAAVYSHSGGEGIKYDYWGQGTQVTVSS | low polyreactivity
9 | QVQLVESGGGLVQAGGSLRLSCSASGIIFRGYAMGWYRQAPRKERELVAGITSGGDTNYADSVKGRFTISRDNAKNTVYLQMNSLKPEETAVYYCNVALQAKGMGYWGQGTQVTVSS | low polyreactivity
10 | QVQLVESGGGLVQAGGSLRLSCSASGIIFSEYAMVWYRQAPGKERELVAAISKSSGSTRYADSVKGRFTISRDNAKNTVYLQMNSLKPEVTAVYYCAAVYRGVVVYGYWGQGTQVTVSS | high polyreactivity
11 | QVQLVESGGGLVQAGGSLRLSCSASGITSKNYAMGCYRQAPGKERELVAVISGRGGSTYYADSVKGRFTISRDNAKNTVYLQMNSLKPVDTAVYYCAAYGNQRRGAYPYKYDYWGQGTQVTVSS | high polyreactivity
12 | QVQLVESGGGLVQAGGSLRLSCSASGRFYVINYMGRYRQAPGKERELVAANTWGSSTYADSEKGRFTISRDNAKITVYFQMNSLKQEDTAVYYCSRDVYPSTWEYDYWGQGTQVTVSS | low polyreactivity
13 | QVQLVESGGGLVQAGGSLRLSCSASGRIFQYYAMGWYIKAPGKERELVAAISGRGTSTYYADSVKGRFTISRDNAKNTVYLEMNSLKQEDTAVYYCNADINYKSYFIHTFTIIPYGYWGQGTQVTVSS | low polyreactivity
14 | QVQLVESGGGLVQAGGSLRLSCSASGRIFWDYAMGRYRQAPGKERELVASSSTDGSTYYADSVKGRFTISRDNANNTFYLQMNSLKPEDTAVYYCAARGYRGRMGYWGQGTQVTVSS | low polyreactivity
15 | QVQLVESGGGLVQAGGSLRLSCSASGRISNAMGWYRQAPGKERELVATINSGASTNYADSVKGRFTISRDNAKNTVYLQMNSLKPEDTAVYYCNVAYVYGSFRRRPMGYLGQGTQVTVSS | high polyreactivity
16 | QVQLVESGGGLVQAGGSLRLSCSASGRTFGYNAMGWYRQAPGKEWELVAAIRTIGDSTYYADSVKGRFTISRDNAKNTVYLQMNSLKPEDTAVYYCAARNLRSRYDYWGQGTQVTVSS | high polyreactivity
17 | QVQLVESGGGLVQAGGSLRLSCSASGRTFSRYAMGWYSQAPGTERELVATISRRGGSTYYADSVKGRFTISRDNAKNTVYLQMNSLKPEDTAVYYCAARLYTQYYYWGQGTQVTVSS | high polyreactivity
18 | QVQLVESGGGLVQAGGSLRLSCSASGSIFDAYAMGWYRQAPGKEREMVAAISKGGTRTYYADSVKGRFTISRDNAKNTVYLQMNSLIPEDTAFYYCNSYYRREPDDGDYDYWGQGTQVTVSS | high polyreactivity
19 | QVQLVESGGGLVQAGGSLRLSCSASGSIFPHYAMGWYRQAPGKERELVAAISRSGTSTYYADSVKGRFTISRDNAKNTVYLQMNSLKPEDTAVYYCNAYQVYTRTYGYCGQGTQVTVSS | high polyreactivity
20 | QVQLVESGGGLVQAGGSLRLSCSASGSIFVRNFMGGYRQSPGKERELVAGISWNGGSTFYADSVKGRFTISRDNAKNTVYLQMNSLKPEDTAVYYCAARGRHSVYYSFPYYYWGQGTQVTVSS | low polyreactivity
21 | QVQLVESGGGLVQAGGSLRLSCSASGSIFYYKAMGWYRQAPGKERELVAAISYRGTSTYYADSVKGRFTISRDNAKNTVSLQMNSLKPEDTAVYYCAAPALYTSRRYYYWGQGNQVTVSS | high polyreactivity
22 | QVQLVESGGGLVQAGGSLRLSCSASGSIYSYYTMGSYIQAPGKERELVAAITGSGGRTYYADSVKGRFTISRDNAKNTVYLQMNSLKQEDTAVYYCNADRHYVPYYSRPRYIPYDYWGQGTQVTVSS | high polyreactivity

Row | Sequence | polyreactivity (PSR sort gate)
23 | QVQLVESGGGLVQAGGSLRLSCSASGSTFFPYAMGWYRQAPGKERELVAAITSGGNTNYADSVKGRFTISRDNAKNTVYLQMNSLKPEDTAVYYCAADYLWHYRKYDYWGQGTQVTVSS | low polyreactivity
24 | QVQLVESGGGLVQAGGSLRLSCSASGSTFPPNAMGWYRQAPGKERELVAVISYSDGSTYYADSVKGRFTISRDNAKNTVYLQMNSLKPEDTAVYYCAAYSGYGGVSMYYWGQGTQVTVSS | low polyreactivity
25 | QVQLVESGGGLVQAGGSLRLSCSASGSTFRGYAMGWYRQAPGKDRELVAAISWSGGSTYYADSVKGRFTISRDHAKNTVYLQMNSLKPVDTAVYYCNAVGYLDFEWGQGTQVTVSS | low polyreactivity
26 | QVQLVESGGGLVQAGGSLRLSCSASGSTFSENAMGWYRQAPGKERELVAAISWGGGSTYYADSVKGRFTISRDKAKNTVYLQMNSLKPEDTSVYYCNADVFDDYCDFESDDWGQGTQVTVSS | low polyreactivity
27 | QVQLVESGGGLVQAGGSLRLSCSASGSTFYVYAMGWYRQAPGKERELVAAITDSGGSTYYADSVKGRFTISRDNAKNTVYLQMNILKPEDTAVYYCAREYTYRYHYYYWGQGTQVTVSS | low polyreactivity
28 | QVQLVESGGGLVQAGGSLRLSCSASGYIFSKYGMGWYRQAPGKEREFVAAISIRGGNTYYADSVKGRFTISRDNAKNTVYLQMTSLKPEDTAVYYCNALSYGRYLNYRGGMDYWGQGTQVTVSS | high polyreactivity
29 | QVQLVESGGGLVQAGGSLRLSCSDSGSTFPYHAMGWYRPAPGKERELVAAIDSSDGITYYADSVKGRFTISRDNAKNTVYLQMNRLKPEDTAVYYCAAEDYEAGYDFWGQGTQVTVSS | high polyreactivity
30 | QVQLVESGGGLVQAGGSLRLSCTASGGIFRYYAMGWYRPAPGKERELVAGISRSGGSTHYADSVKGRFTISRDNAKNTVYLQMNSLKREDTAVYYCAADTYFTKYDYWGQGTQVTVSS | high polyreactivity
31 | QVQLVESGGGLVQAGGSLRLSCVASGLTFYYYAMGWYRQAPGKERELVAAISSGGSTYYADSVKGRFTISRDNAKNTVYLQMNSLKPEDTAVYYCNTYRYRVWGLMYWGQGTQVTLSS | high polyreactivity
32 | QVQLVESGGGLVQAGGSLRLSCVASGRIFWANAIGWYRQAPGKERELVAAITYSGGTTYYADSVKGRFTISRDNAKNTVYLQMNSLKPEATAVYYCAKVGRGNNYWGQGTQVTVSS | high polyreactivity
33 | QVQLVESGGGLVQAGGSLRLSCVASGRTFSRYAMGWYRPAPGKERELVAAISRRGGSTFYADSVKGRFTISRDNAKNTVYLQMNSLKPEDTAVYYCAAGYITWGSGNWVVTPYDYWGQGTQVTVSS | high polyreactivity
34 | QVQLVESGGGLVQAGGSLRLSCYASGFIFHSYAMGWYRQAPGKERELVASISRGGGSTYYADSVKGRFTISRDNAKNTVYLQKNSLKPEDTPVYYCNAVWRSNSRFDYWGQCTQVTVSS | high polyreactivity
35 | QVQLVESGGGLVQAGGSLRLSFAASARTFYIYPMGWYRQAPGKERELVAAITYGGGRTFYADSVKGRFTISRDNANNTVYLQMNSLKPEDTAVYYCAATVRGKRSTYDYWGQGTQVTVSS | high polyreactivity
36 | QVQLVESGGGLVQAGGSLRLSFAASGFIFYRYVMGWYRQAPGKERELVAAITWSGGSTYYADSVKGRFTISRDNAKNTVYLQMNSLKPEDTAVYYCNAESNLYFRYDYWGQGTQVTVSS | low polyreactivity
37 | QVQLVESGGGLVQAGGSLRLSFAASGFNFEWYTMGWYRQAPGKEMELVADISGDGSTYYAVSVKGRFTISRDNAKNTVYLQMNSLKPEDTAVYYCAASFWGIAMGYWGQGTQVTVSS | high polyreactivity
38 | QVQLVESGGGLVQAGGSLRLSFAASGFTFYRYAMGWYRQAPGKERELVAAISGDGGSTYYAASVKGRFTISRDNAKNTVYLQMNSLKPEDTAVYYCNKYFWQYLYGYWGQGTQVTVSS | high polyreactivity
39 | QVQLVESGGGLVQAGGSLRLSFAASGFTLVGYTMGWYRQAPGKERELVAAINWSGGRTYYADSVKGRFTISRDNAKNTVYLQMNSLKPVDTAVYYCAADSLRYKKYYYWGQGTQVTVSS | high polyreactivity
40 | QVQLVESGGGLVQAGGSLRLSFAASGLIGRYAMGWYRQAPGKERELVAVITSGDSTYYADSVKGRFTISRDNAKNTVYLQMNSLKQEDTAVYYCAADSYRRWGNLFTGNEYDSWGQGTQVTVSS | low polyreactivity
41 | QVQLVESGGGLVQAGGSLRLSFAASGLIVTGYAMGWYRQRPGKEREVVAAITSGGGTNYADSVKGRFTISRDNAKNTVDLQMNSLKPEDTAVYYCAVDFGHYYLYSITSYLWYWDGYDYWGQGTQVTVSS | low polyreactivity
42 | QVQLVESGGGLVQAGGSLRLSFAASGNIFSFNDMGWYRQAPGQERELVAAITSSDSTNYADSVKGRFTISRDNAKNTVYLQMNSLKPEDTAVYYCATEILTAARETVVYQFYLGYYYWGQGTQVTVSS | low polyreactivity
43 | QVQLVESGGGLVQAGGSLRLSFAASGRIFDYNVMGWYRQAPGKERELVADITSSGGATYYADSVKGRFTNSRDNAKNTVYLQMNSLKPEDTAVYYCYISYFTFYDDFYYWGQGTQVTVSS | low polyreactivity
